“Also recorded” adds a separate entry of the source. Ends that are not written are not given here.
Assays:
[1] = system: murine facialis arteries; assay: ACh-induced vasodilation of isolated, pressurized facialis arteries after acute peptide exposure; parameters: species or system C57BL/6 mice; settings: 10 μg/mL, 10 min pre-treatment, vs vehicle control
Description: The B2 peptide was also shortened to 15 aa (AELVLEVPLEHPTLE) with the TAT PTD (RKKRRQRRR) added at the N-terminal as described by Pagano and associates.^6 (Note that the initial A residue is a linker.) This redesign made a new decoy peptide (RKKRRQRRR-AELVLEVPLEHPTLE), which we called TSB2. In designing a control peptide, TSB(Ctr) (RKKRRQRRR-AALVLAVPLAHPRLA), we reasoned that if E were important for binding, then replacing E with A would result in a peptide that would fail to bind to hsp90 or another heatshock protein essential to chaperone-dependent signaling and possibly mitochondrial function and therefore fail to impair vasodilation. To test these ideas, TSB2 and TSB(Ctr) (10 μg/mL) were incubated with separatefacialis arteries from healthy C57BL/6 male mice, whose vasodilation is mediated 100% by eNOS.^9 Ten minutes later, excess peptides were removed by changing the buffer and ACh-dose response curves of the preconstricted and pressurized vessels determined as before.^9

[2] = system: B16 melanoma cells; assay: Viability of B16 melanoma cells in culture (LDH release); type: cell-based; settings: even at 100 μg/mL
[3] = target: T1, heat shock protein 90 (hsp90), endogenous in bovine aortic endothelial cells (BAEC) (bovine, UniProt A0AAA9SQM8); assay: peptide at 10 ug/mL in BAEC lysate, eNOS immunoprecipitation, western blot for hsp90
[4] = target: T1, heat shock protein 90 (hsp90), …; assay: eNOS immunoprecipitation from treated BAEC cultures, western blot for hsp90 (FIG. 2)

Molecule | percent decrease of hsp90 association with eNOS [3] | further results
RKKRRQRRR-AALVLAVPLAHPRLA [TSB(Ctr)] |  | effect on ACh-induced vasodilation (in words) [1]: no effect
RKKRRQRRRAELVLEVPLEHPTLE [TSB2, RKKRRQRRR-AELVLEVPLEHPTLE] |  | viability of B16 melanoma cells (LDH release) [2]: no significant effects; also recorded: no direct effect
APELFVLPPELVLEVPLEHP [B2 (301-320)] | ~80% | 
RKKRRQRRRAELVLEVPLEHPTLE [TSB2] |  | hsp90 association with eNOS relative to PEP1-treated or untreated cultures [4]: 0.25 fraction of control level
LVLEVPLEHPTLEWFAALGL [B3 (311-330)] | ~80% | 
LPLLLQAPDEAPELFVLPPE [B1 (291-311)] | ~80% | 
